Here are results for three substances from paper doi:10.1101/2025.09.08.674988.

Series [1] can be described thus: dynamic light scattering. Conditions: other: dynamic light scattering.
In series [2] the target is FlAsH-labeled NS5B(Δ21)-FlAsH-His (Hepatitis C virus genotype 2a). Kind of series: FRAP on a supported lipid bilayer.
In series [3] the target is NS5B(Δ21)-FlAsH-His (Hepatitis C virus genotype 2a). As to the kind of experiment: dynamic light scattering.
Series [4] concerns the target FlAsH-labeled NS5B(Δ21)-FlAsH-His (Hepatitis C virus genotype 2a). As to the kind of experiment: fluorescence polarisation.
For series [5] the target is unchanged. As to the kind of experiment: fluorescence polarisation. The source holds these as a separate data set.
Series [6] has the same target. As to the kind of experiment: fluorescence polarisation. This is another data set of the same source.

For the substance NS5B(Δ21)-FlAsH-His, the K0.5 entry in series [1] is reported as “K0.5 ∼ 1.5 µM”.

As to “FlAsH-labeled NS5B(Δ21)-FlAsH-His (enzyme)”, the Kd in series [2] was < 10 nM.

For NS5B(Δ21)-FlAsH-His (enzyme), the Kd in series [3] came out at 750 nM; in series [4], 1100 nM; in series [5] it was 1000 nM; in series [6], 560 nM.
